# Target: EBOV GP.10xhis
# Experiment: SPR
# Details: for increase in kd values at pH 5.0: second pH 7.4
Substance,koff (pH 5.0),t 1/2 (min) (pH 5.0),koff (pH 6.0),t 1/2 (min) (pH 6.0),koff (pH 7.4),t 1/2 (min) (pH 7.4),increase in kd values at pH 5.0
REGN3470,0.000491 s⁻¹,23.5 min,0.000367 s⁻¹,31.4 min,0.000432 s⁻¹,26.7 min,less than 2-fold
REGN3471,0.000332 s⁻¹,34.8 min,0.000221 s⁻¹,52.3 min,0.000195 s⁻¹,59.1 min,less than 2-fold
REGN3479,0.000202 s⁻¹,57.3 min,0.000214 s⁻¹,55.1 min,7.83e-05 s⁻¹,148 min,3-fold

# Reference: publication PMC6249601
